How the values were obtained:
[1] = target: ChiAVD–G42A (chicken | not stated) (UniProt P56734); assay: dynamic light scattering; 50 mM NaH2PO4/Na2HPO4, 100 mM NaCl, pH 7 at 25°C; volume distribution
[2] = target: ChiAVD–G42F (chicken | not stated) (UniProt P56734); assay: as above
[3] = target: Chimeric avidin ChiAVD(I117Y) (chicken | not stated) (UniProt P02701); assay: as above
[4] = target: Chimeric avidin ChiAVD(I117Y) (chicken | not stated) (UniProt P02701); assay: solution NMR structure; biotin-bound ChiAVD, 13C/15N-labelled, 58°C, 800 MHz; intersubunit NOE peaks identified by inspection of avidin crystal structures and manually assigned; RDCs in bicelles at 40°C

“ChiAVD–G42A (from UniProt P56734 62-82; P02701 85-152)” was tested, and the stoichiometry N [1] was 4.
In the case of “ChiAVD–G42F (from UniProt P56734 62-82; P02701 85-152)”, the stoichiometry N [2] is reported as 4.
For “Chimeric avidin ChiAVD(I117Y) (from UniProt P02701 85-152)”, the stoichiometry N [3] was 4 and the stoichiometry N [4] was 4.
